Laboratory results taken from IntAct's records for PubMed 31515488.

B1: Keratin, type II cytoskeletal 6A (Homo sapiens), P02538 (parent)
chain: MASTSTTIRSHSSSRRGFSANSARLPGVSRSGFSSVSVSRSRGSGGLGGACGGAGFGSRSLYGLGGSKRISIGGGSCAISGGYGSRAGGSYGFGGAGSGFGFGGGAGIGFGLGGGAGLAGGFGGPGFPVCPPGGIQEVTVNQSLLTPLNLQIDPTIQRVRAEEREQIKTLNNKFASFIDKVRFLEQQNKVLETKWTLLQEQGTKTVRQNLEPLFEQYINNLRRQLDSIVGERGRLDSELRGMQDLVEDFKNKYEDEINKRTAAENEFVTLKKDVDAAYMNKVELQAKADTLTDEINFLRALYDAELSQMQTHISDTSVVLSMDNNRNLDLDSIIAEVKAQYEEIAQRSRAEAESWYQTKYEELQVTAGRHGDDLRNTKQEIAEINRMIQRLRSEIDHVKKQCANLQAAIADAEQRGEMALKDAKNKLEGLEDALQKAKQDLARLLKEYQELMNVKLALDVEIATYRKLLEGEECRLNGEGVGQVNISVVQSTVSSGYGGASGVGSGLGLGGGSSYSYGSGLGVGGGFSSSSGRAIGGGLSSVGGGSSTIKYTTTSSSSRKSYKH
partner: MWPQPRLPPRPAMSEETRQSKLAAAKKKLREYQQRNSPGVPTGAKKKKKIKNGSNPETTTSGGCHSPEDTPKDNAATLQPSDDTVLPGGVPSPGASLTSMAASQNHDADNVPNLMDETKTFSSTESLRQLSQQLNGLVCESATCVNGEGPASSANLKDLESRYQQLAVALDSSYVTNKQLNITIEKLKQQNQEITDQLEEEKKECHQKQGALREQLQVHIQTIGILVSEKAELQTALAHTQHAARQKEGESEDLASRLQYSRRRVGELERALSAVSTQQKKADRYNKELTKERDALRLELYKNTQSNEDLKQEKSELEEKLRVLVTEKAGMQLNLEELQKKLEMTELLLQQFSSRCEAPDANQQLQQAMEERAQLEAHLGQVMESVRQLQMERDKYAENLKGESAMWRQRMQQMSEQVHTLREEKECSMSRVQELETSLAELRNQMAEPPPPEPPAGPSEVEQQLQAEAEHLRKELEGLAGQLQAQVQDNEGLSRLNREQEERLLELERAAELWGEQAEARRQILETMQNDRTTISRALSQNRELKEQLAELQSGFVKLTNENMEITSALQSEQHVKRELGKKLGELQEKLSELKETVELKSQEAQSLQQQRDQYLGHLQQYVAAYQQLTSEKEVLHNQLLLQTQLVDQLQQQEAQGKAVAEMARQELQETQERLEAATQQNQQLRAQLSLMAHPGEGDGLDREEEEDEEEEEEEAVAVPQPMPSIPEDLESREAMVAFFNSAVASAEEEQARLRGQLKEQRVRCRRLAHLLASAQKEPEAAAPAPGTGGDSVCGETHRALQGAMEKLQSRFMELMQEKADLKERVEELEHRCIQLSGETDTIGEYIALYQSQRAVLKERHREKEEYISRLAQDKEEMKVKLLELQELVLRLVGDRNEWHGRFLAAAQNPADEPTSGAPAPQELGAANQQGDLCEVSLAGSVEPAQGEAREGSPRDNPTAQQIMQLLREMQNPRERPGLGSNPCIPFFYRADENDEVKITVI
B2: Tuftelin-interacting protein 11 (Homo sapiens), Q9UBB9 (parent)
chain: MSLSHLYRDGEGRIDDDDDERENFEITDWDLQNEFNPNRQRHWQTKEEATYGVWAERDSDDERPSFGGKRARDYSAPVNFISAGLKKGAAEEAELEDSDDEEKPVKQDDFPKDFGPRKLKTGGNFKPSQKGFAGGTKSFMDFGSWERHTKGIGQKLLQKMGYVPGRGLGKNAQGIINPIEAKQRKGKGAVGAYGSERTTQSMQDFPVVDSEEEAEEEFQKELSQWRKDPSGSKKKPKYSYKTVEELKAKGRISKKLTAPQKELSQVKVIDMTGREQKVYYSYSQISHKHNVPDDGLPLQSQQLPQSGKEAKAPGFALPELEHNLQLLIDLTEQEIIQNDRQLQYERDMVVNLFHELEKMTEVLDHEERVISNLSKVLEMVEECERRMQPDCSNPLTLDECARIFETLQDKYYEEYRMSDRVDLAVAIVYPLMKEYFKEWDPLKDCTYGTEIISKWKSLLENDQLLSHGGQDLSADAFHRLIWEVWMPFVRNIVTQWQPRNCDPMVDFLDSWVHIIPVWILDNILDQLIFPKLQKEVENWNPLTDTVPIHSWIHPWLPLMQARLEPLYSPIRSKLSSALQKWHPSDSSAKLILQPWKDVFTPGSWEAFMVKNIVPKLGMCLGELVINPHQQHMDAFYWVIDWEGMISVSSLVGLLEKHFFPKWLQVLCSWLSNSPNYEEITKWYLGWKSMFSDQVLAHPSVKDKFNEALDIMNRAVSSNVGAYMQPGARENIAYLTHTERRKDFQYEAMQERREAENMAQRGIGVAASSVPMNFKDLIETKAEEHNIVFMPVIGKRHEGKQLYTFGRIVIYIDRGVVFVQGEKTWVPTSLQSLIDMAK
partner: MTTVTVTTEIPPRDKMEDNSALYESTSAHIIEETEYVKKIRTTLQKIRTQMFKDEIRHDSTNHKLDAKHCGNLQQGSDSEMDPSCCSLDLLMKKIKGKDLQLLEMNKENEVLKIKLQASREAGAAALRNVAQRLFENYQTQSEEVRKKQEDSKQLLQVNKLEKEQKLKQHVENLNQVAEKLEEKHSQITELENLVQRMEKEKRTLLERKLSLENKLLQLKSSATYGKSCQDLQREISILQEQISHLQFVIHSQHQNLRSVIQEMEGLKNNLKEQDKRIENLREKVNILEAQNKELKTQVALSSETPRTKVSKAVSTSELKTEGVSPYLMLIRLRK
B3: E3 ubiquitin-protein ligase TRAIP (Homo sapiens), Q9BWF2 (parent)
chain: MPIRALCTICSDFFDHSRDVAAIHCGHTFHLQCLIQWFETAPSRTCPQCRIQVGKRTIINKLFFDLAQEEENVLDAEFLKNELDNVRAQLSQKDKEKRDSQVIIDTLRDTLEERNATVVSLQQALGKAEMLCSTLKKQMKYLEQQQDETKQAQEEARRLRSKMKTMEQIELLLQSQRPEVEEMIRDMGVGQSAVEQLAVYCVSLKKEYENLKEARKASGEVADKLRKDLFSSRSKLQTVYSELDQAKLELKSAQKDLQSADKEIMSLKKKLTMLQETLNLPPVASETVDRLVLESPAPVEVNLKLRRPSFRDDIDLNATFDVDTPPARPSSSQHGYYEKLCLEKSHSPIQDVPKKICKGPRKESQLSLGGQSCAGEPDEELVGAFPIFVRNAILGQKQPKRPRSESSCSKDVVRTGFDGLGGRTKFIQPTDTVMIRPLPVKPKTKVKQRVRVKTVPSLFQAKLDTFLWS
B4: Ornithine decarboxylase antizyme 3 (Homo sapiens), Q9UMX2 (parent)
chain: MPCKRCRPSVYSLSYIKRGKTRNYLYPIWSPYAYYLYCYKYRITLREKMLPRCYKSITYKEEEDLTLQPRSCLQCSESLVGLQEGKSTEQGNHDQLKELYSAGNLTVLATDPLLHQDPVQLDFHFRLTSQTSAHWHGLLCDRRLFLDIPYQALDQGNRESLTATLEYVEEKTNVDSVFVNFQNDRNDRGALLRAFSYMGFEVVRPDHPALPPLDNVIFMVYPLERDVGHLPSEPP
partner: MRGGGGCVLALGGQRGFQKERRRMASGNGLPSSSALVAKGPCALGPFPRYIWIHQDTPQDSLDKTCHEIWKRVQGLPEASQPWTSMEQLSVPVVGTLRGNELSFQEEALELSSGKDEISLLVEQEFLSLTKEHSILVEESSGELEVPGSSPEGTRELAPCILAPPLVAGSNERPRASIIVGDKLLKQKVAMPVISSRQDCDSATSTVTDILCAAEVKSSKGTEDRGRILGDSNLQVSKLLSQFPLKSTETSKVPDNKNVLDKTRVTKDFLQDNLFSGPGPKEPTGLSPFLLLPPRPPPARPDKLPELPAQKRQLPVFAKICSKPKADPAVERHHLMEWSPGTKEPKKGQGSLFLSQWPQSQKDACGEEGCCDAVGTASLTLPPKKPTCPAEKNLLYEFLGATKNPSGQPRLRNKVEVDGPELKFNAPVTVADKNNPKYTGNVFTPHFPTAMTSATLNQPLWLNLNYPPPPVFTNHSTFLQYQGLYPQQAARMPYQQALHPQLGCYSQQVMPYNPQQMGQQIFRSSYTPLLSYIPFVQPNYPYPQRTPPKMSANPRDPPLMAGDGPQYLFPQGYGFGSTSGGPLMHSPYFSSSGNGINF

Variants of: B1
Conditions: with goga2_human GOLGA2, Q08379

Variant | effect of a mutation on the interaction
L210M | with no effect

Variants of: B2
Conditions: with ccd68_human CCDC68, Q9H2F9

Variant | effect of a mutation on the interaction
R8Q | with no effect
S688L | with no effect

Variants of: B3
Conditions: with mare2_human MAPRE2, Q15555
mare2_human MAPRE2, Q15555, sequence (Q15555 whole entry): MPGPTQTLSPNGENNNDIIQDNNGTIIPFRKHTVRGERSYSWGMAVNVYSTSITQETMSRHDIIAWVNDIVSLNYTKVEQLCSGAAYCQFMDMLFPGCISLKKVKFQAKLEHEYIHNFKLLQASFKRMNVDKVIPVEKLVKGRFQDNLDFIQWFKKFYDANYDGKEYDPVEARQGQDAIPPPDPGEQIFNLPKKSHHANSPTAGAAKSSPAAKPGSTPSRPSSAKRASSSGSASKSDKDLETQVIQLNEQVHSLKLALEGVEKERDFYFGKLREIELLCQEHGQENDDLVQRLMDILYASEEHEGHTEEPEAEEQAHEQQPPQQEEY

Variant | effect of a mutation on the interaction
Q428H | with no effect

Variants of: B4
Conditions: with ca094_human C1orf94, Q6P1W5

Variant | effect of a mutation on the interaction
R193Q | with no effect
V174A | disrupting interaction strength
